Target: maltose-binding protein fragment MBP198–265 [MBP: P0AEX9]
Experiment: ITC; iTC200, 22 °C; 350 μM MBP198–265 in the cell, 3.5 mM TF^PPD-SBD in the syringe; 20 mM potassium phosphate pH 7.0, 100 mM KCl, 0.05% NaN3

- Kd: 47 µM
- dH: -5.9 kcal/mol
Substance: trigger factor tandem domain TF^PPD-SBD (from UniProt P0A850 113-246) (domain or fragment)

— publication PMC6166725
